Experimental data as given in IntAct's records for PubMed 14532330.

B1: Protein phosphatase 1 regulatory subunit 3C (Homo sapiens), Q9UQK1 (parent)
chain: MSCTRMIQVLDPRPLTSSVMPVDVAMRLCLAHSPPVKSFLGPYDEFQRRHFVNKLKPLKSCLNIKHKAKSQNDWKCSHNQAKKRVVFADSKGLSLTAIHVFSDLPEEPAWDLQFDLLDLNDISSALKHHEEKNLILDFPQPSTDYLSFRSHFQKNFVCLENCSLQERTVTGTVKVKNVSFEKKVQIRITFDSWKNYTDVDCVYMKNVYGGTDSDTFSFAIDLPPVIPTEQKIEFCISYHANGQVFWDNNDGQNYRIVHVQWKPDGVQTQMAPQDCAFHQTSPKTELESTIFGSPRLASGLFPEWQSWGRMENLASYR
partner: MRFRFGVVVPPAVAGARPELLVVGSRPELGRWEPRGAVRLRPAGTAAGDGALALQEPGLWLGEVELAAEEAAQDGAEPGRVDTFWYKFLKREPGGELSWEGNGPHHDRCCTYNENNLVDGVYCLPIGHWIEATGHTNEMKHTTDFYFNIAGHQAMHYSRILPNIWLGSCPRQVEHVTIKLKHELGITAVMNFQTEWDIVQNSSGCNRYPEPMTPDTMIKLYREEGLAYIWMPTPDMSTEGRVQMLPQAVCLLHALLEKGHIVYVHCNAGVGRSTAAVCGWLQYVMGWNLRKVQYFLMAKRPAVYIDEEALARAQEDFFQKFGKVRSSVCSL
B2: Laforin (Homo sapiens), O95278 (parent)
chain: B1 partner
partner: B1 chain

Variants of: B1
Settings: with epm2a_human EPM2A

| effect of a mutation on the interaction | Variant |
| --- | --- |
| disrupting interaction | MSCTRMIQVLDPRPLTSSVMPVDVAMRLCLAHSPPVKSFLGPYDEFQRRHFVNKLKPLKSCLNIKHKAKSQNDWKCSHNQAKKRVVFADSKGLSLTAIHVFSDLPEEPAWDLQFDLLDLNDISSALKHHEEKNLILDFPQPSTDYLSFRSHFQKNFVCLENCSLQERTVTGTVKVKNVSFEKKVQIRITFDSWKNYTDVDCVYMKNVYGGTDSDTFSFAIDLPPVIPTEQKIEFCISYHANGQVFWANNAGQNYRIVHVQWKPDGVQTQMAPQDCAFHQTSPKTELESTIFGSPRLASGLFPEWQSWGRMENLASYR [D247A;D250A] |

Variants of: B2
Settings: with ppr3c_human PPP1R3C

| Variant | effect of a mutation on the interaction |
| --- | --- |
| MRFRFGVVVPPAVAGARPELLVVGSRPELGRWEPRGAVRLRPAGTAAGDGALALQEPGLWLGEVELAAEEAAQDGAEPGRVDTLWYKFLKREPGGELSWEGNGPHHDRCCTYNENNLVDGVYCLPIGHWIEATGHTNEMKHTTDFYFNIAGHQAMHYSRILPNIWLGSCPRQVEHVTIKLKHELGITAVMNFQTEWDIVQNSSGCNRYPEPMTPDTMIKLYREEGLAYIWMPTPDMSTEGRVQMLPQAVCLLHALLEKGHIVYVHCNAGVGRSTAAVCGWLQYVMGWNLRKVQYFLMAKRPAVYIDEEALARAQEDFFQKFGKVRSSVCSL [F84L] | disrupting interaction |
| MRFRFGVVVPPAVAGARPELLVVGSRPELGRWEPRGAVRLRPAGTAAGDGALALQEPGLWLGEVELAAEEAAQDGAEPGRVDTFWYKFLKREPGGELSWEGNGPHHDRCCTYNENNLVDGVYCLPIGHWIEATGHTNEMKHTTDFYFNIAGHQAMHYSRILPNIWLGSCPRQVEHVTIKLKHELGITAVMNFQTEWDIVQNSSGCNRYPEPMTPDTMIKLYREEGLAYIWMPTPDMSTEGRVQMLPQAVCLLHALLEKGHIVYVHCNAGVGRSTAAVCGWLQYVMGWNLRKVQYFLMAKRLAVYIDEEALARAQEDFFQKFGKVRSSVCSL [P301L] | disrupting interaction |
| MRFRFGVVVPPAVAGARPELLVVGSRPELGRWEPRGAVRLRPAGTAAGDGALALQEPGLWLGEVELAAEEAAQDGAEPGRVDTFWYKFLKREPGGELSWEGNGPHHDRCCTYNENNLVDGVYCLPIGHWIEATGHTNEMKHTTDFYFNIAGHQAMHYSRILPNIWLGSCPRQVEHVTIKLKHELGITAVMNFQTEWDIVQNSSGCNRYPEPMTPDTMIKLYREEGLAYIWMPTPDMSTESRVQMLPQAVCLLHALLEKGHIVYVHCNAGVGRSTAAVCGWLQYVMGWNLRKVQYFLMAKRPAVYIDEEALARAQEDFFQKFGKVRSSVCSL [G240S] | decreasing interaction |
| MRFRFGVVVPPAVAGARPELLVVGSRPELGRWEPRGAVRLRPAGTAAGDGALALQEPGLWLGEVELAAEEAAQDGAEPGRVDTFWYKFLKREPGGELSWEGNGPHHDRCCTYNENNLVDGVYCLPIGHWIEATGHTNEMKHTTDFYFNIAGHQAMHYSRILPNIWLGSCPRQVEHVTIKLKHELGITAVMNFQIEWDIVQNSSGCNRYPEPMTPDTMIKLYREEGLAYIWMPTPDMSTEGRVQMLPQAVCLLHALLEKGHIVYVHCNAGVGRSTAAVCGWLQYVMGWNLRKVQYFLMAKRPAVYIDEEALARAQEDFFQKFGKVRSSVCSL [T194I] | disrupting interaction |
| MRFRFGVVVPPAVAGARPELLVVGSRPELGRWEPRGAVRLRPAGTAAGDGALALQEPGLWLGEVELAAEEAAQDGAEPGRVDTFWYKFLKREPGGELSWEGNGPHHDCCCTYNENNLVDGVYCLPIGHWIEATGHTNEMKHTTDFYFNIAGHQAMHYSRILPNIWLGSCPRQVEHVTIKLKHELGITAVMNFQTEWDIVQNSSGCNRYPEPMTPDTMIKLYREEGLAYIWMPTPDMSTEGRVQMLPQAVCLLHALLEKGHIVYVHCNAGVGRSTAAVCGWLQYVMGWNLRKVQYFLMAKRPAVYIDEEALARAQEDFFQKFGKVRSSVCSL [R108C] | disrupting interaction |
| MRFRFGVVVPPAVAGARPELLVVGSRPELGRWEPRGAVRLRPAGTAAGDGALALQEPGLWLGEVELAAEEAAQDGAEPGRVDTFWYKFLKREPGGELSWEGNGPHHDRCCTYNENNLVDGVYCLPIGHWIEATGHTNEMKHTTDFYFNIAGHQAMHYSRILPNIWLGSCPRQVEHVTIKLKHELGITAVMNFQTEWDIVQNSSGCNRYPEPMTPDTMIKLYREEGLAYIWMPTPDMSTEGRVQMLPQAVCLLHALLEKGHIVYVHSNAGVGRSTAAVCGWLQYVMGWNLRKVQYFLMAKRPAVYIDEEALARAQEDFFQKFGKVRSSVCSL [C266S] | increasing interaction |

More lines, now with the values ahead:

| effect of a mutation on the interaction | Variant |
| --- | --- |
| decreasing interaction | MRFRFGVVVPPAVAGARPELLVVGSRPELGRWEPRGAVRLRPAGTAAGDGALALQEPGLWLGEVELAAEEAAQDGAEPGRVDTFWYKFLKREPGGELSWEGNGPHHDRCCTYNENNLVDGVYCLPIGHWIEATGHTNEMKHTTDFYFNIAGHQAMHYSRILPNIWLGSCPRQVEHVTIKLKHELGITAVMNFQTEWDIVQNSSGCNRYPEPMTPDTMIKLYREEGLAYIWMPTPDMSTEGRVQMLPQAVCLLHALLEKGHIVYVHCNAGVGRSTAAVCSWLQYVMGWNLRKVQYFLMAKRPAVYIDEEALARAQEDFFQKFGKVRSSVCSL [G279S] |
| disrupting interaction | MRFRFGVVVPPAVAGARPELLVVGSRPELGRGEPRGAVRLRPAGTAAGDGALALQEPGLWLGEVELAAEEAAQDGAEPGRVDTFWYKFLKREPGGELSWEGNGPHHDRCCTYNENNLVDGVYCLPIGHWIEATGHTNEMKHTTDFYFNIAGHQAMHYSRILPNIWLGSCPRQVEHVTIKLKHELGITAVMNFQTEWDIVQNSSGCNRYPEPMTPDTMIKLYREEGLAYIWMPTPDMSTEGRVQMLPQAVCLLHALLEKGHIVYVHCNAGVGRSTAAVCGWLQYVMGWNLRKVQYFLMAKRPAVYIDEEALARAQEDFFQKFGKVRSSVCSL [W32G] |
| disrupting interaction | MRFRFGVVVPPAVAGARPELLVVGSRPELGRWEPRGAVRLRPAGTAAGDGALALQEPGLWLGEVELAAEEAAQDGAEPGRVDTFWYKFLKREPGGELSWEGNGPHHDRCCTYNENNLVDGVYCLPIGHWIEATGHTNEMKHTTDFYFNIAGHQAMHYSRILPNIWLGSCPRQVEHVTIKLKHELGITAVMNFQTEWDIVQNSSGCNRYPEPMTPDTMIKLYREEGLAYIWMPTPDMSTEGRVQMLPQAVCLLHALLEKGHIVYVHCNAGVGRSTAAVCGWLQYVMGWNLRKVQNFLMAKRPAVYIDEEALARAQEDFFQKFGKVRSSVCSL [Y294N] |
| disrupting interaction | MRFRFGVVVPPAVAGARPELLVVGSRPELGRWEPRGAVRLRPAGTAAGDGALALQEPGLWLGEVELAAEEAAQDGAEPGRVDTFWYKFLKREPGGELSWEGNGPHHDRCCTYNENNLVDGVYCLPIGHWIEATGHTNEMKHTTDFYFNIAGHQAMHYSRILPNIWLGSCPRQVEHVTIKLKHELGITAVMNFQTEWDIVQNSSGCNRYPEPMTPDTMIKLYREEGLAYIWMPTPDMSTEGRVQMLPQAVCLLHALLEKGHIVYVHCNAGVGRSTAAVCGWLQYVMGWNLRKVLYFLMAKRPAVYIDEEALARAQEDFFQKFGKVRSSVCSL [Q293L] |
